# Assay results taken from patent publication US20160200815A1 (JOUNCE THERAPEUTICS, published 2016).
# Numbering of substitutions follows the chain as printed.
# B1: mAb58 (antibody, V domains shown)
# VH: QIQLVQSGPELKKPGETVKISCKASGYTFTTYGMSWVKQAPGKGLKLMGWINTYSGAPTYADDFKGRFAFSLETSASAAYLQINNLKNEDTATYFCARKPPHYYVNSFDYWGQGTTLTVSS
# VL: DIVMTQSPATLSVTPGDRVSLSCRASQSISDYLHWYQQKSHESPRLLIKYASQSISGIPSRFSGSGSGSDFTLSINSVEPEDVGVYYCQNGHSFPYTFGGGTKLEIK
# B2: mAb48 (antibody, V domains shown)
# VH: QIQLQQSGPELVTPGTSVKISCKASGYTFTDYYINWVKQRPGQGLEWIGWIYPGSGNTKYNEKFKGKATLTVDTSSSIAYMHLSSLTSEDSAVYFCAGDRFDYWGQGTTLTVSS
# VL: QIVLTQSPAIMSASPGEKVTLTCSASSGVSSSYLYWYQQKPGSSPKLWIYSTSNLASGVPARFSGSGSGTSYSLTISNMETEDAASYFCHQWSNSPYTFGGGTKLEIK
# notes: Mouse hybridoma antibody
# B3: mAb22 (antibody, V domains shown)
# VH: EVQLVESGGDLVKPGGSLKLSCAASGFTFSNHGMSWVRQTPDKRLEWVATISSGGSNTYFPDSVKGRFTISRDNVKNSLYLQMSSLKSEDTAMYYCARHGTSMIKEWFAYWGQGTLVTVSA
# VL: B1 VL with A9V, S30G, S74N, N90H, G91S, Y96P, K103R
# notes: Mouse hybridoma antibody
# B4: mAb91 (antibody, V domains shown)
# VH: DVQFQESGPGLVKPSQSLSLTCSVTGYSITSGYYWNWIRQFPGNKLEWMGYISYDGSNNYNPSLKNRISITRDTSKNQFFLKLNSVTTEDTATYYCGRDGPYYYGSSYGYFDVWGTGTTVTVSS
# VL: DIVMTQAESSVPVTPGESVSISCRSSKSLLHSNGNTYLYWFLQRPGQSPQLLIHRMSNLASGVPDRFSGSGSGTAFTLRISRVEAEDMGVYYCMQHLEYPCTFGGGTKLEIK
# notes: Mouse hybridoma antibody
# B5: mAb15 (antibody, V domains shown)
# VH: QVQLKESGPGLVAPSQSLSITCTVSGFSLTGYGVTWVRQPPGKGLEWLGMIWGDGNTDYNSGLKSRLNISKDNSKSQVFLKMNSLQTDDTARYYCARSYYYGPPDYWGQGTTLTVSS
# VL: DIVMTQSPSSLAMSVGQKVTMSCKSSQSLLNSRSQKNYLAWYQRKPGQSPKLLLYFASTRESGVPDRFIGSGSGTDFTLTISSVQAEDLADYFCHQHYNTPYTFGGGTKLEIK
# notes: also called JTx mAb 15; TIM-3 mAb15
# Target: T1, hTIM3-Fc murine C′C″ loop (human, C′C″ loop replaced by mouse TIM-3)
# T1 construct: Whole construct: chimeric ECD, linker and human IgG1 Fc; also called hTIM3-Fc C′C″ loop chimera
# Assay: ELISA, construct coated on plate
row,Absorbance at 450 nm [A450],Binder
1,0.338,B1

# Target: T2, hTIM3-Fc murine BC loop (human, BC loop replaced by mouse TIM-3)
# T2 construct: Whole construct: chimeric ECD, linker and human IgG1 Fc; also called hTIM3-Fc BC loop chimera
# Assay: ELISA, construct coated on plate
row,Absorbance at 450 nm [A450],Binder
1,1.3,B2
2,2.06,B3
3,1.83,B1
4,1.44,B4

# Target: T3, hTIM3-Fc WT (human)
# T3 construct: also called hTIM-3-hFc
# Assay: ELISA, construct coated on plate
row,Absorbance at 450 nm [A450],Binder
1,1.39,B2
2,2.13,B3
3,1.39,B1
4,1.57,B4

# Target: T4, hTIM3-Fc murine CC′ loop (human, CC′ loop replaced by mouse TIM-3)
# T4 construct: Whole construct: chimeric ECD, linker and human IgG1 Fc; also called hTIM3-Fc CC′ loop chimera
# Assay: ELISA, construct coated on plate
row,Absorbance at 450 nm [A450],Binder
1,0.247,B2
2,0.91,B3
3,1.39,B1
4,0.502,B4

# Target: T5, hTIM3-Fc murine FG loop (human, FG loop replaced by mouse TIM-3)
# T5 construct: Whole construct: chimeric ECD, linker and human IgG1 Fc; also called hTIM3-Fc FG loop chimera
# Assay: ELISA, construct coated on plate
row,Absorbance at 450 nm [A450],Binder
1,1.53,B2
2,2.22,B3
3,1.9,B1
4,1.74,B4

# Target: T6, hTIM3-Fc murine DE loop (human, DE loop replaced by mouse TIM-3)
# T6 construct: Whole construct: chimeric ECD, linker and human IgG1 Fc; also called hTIM3-Fc DE loop chimera
# Assay: ELISA, construct coated on plate
row,Absorbance at 450 nm [A450],Binder
1,1.29,B5
2,0.855,B1
3,1.01,B4
